Experiment [1] concerns the target CID1R^AltAll, alternative reconstructed CID of the early vertebrate ancestor (1R) with the second most likely …. The experiment is described as follows: ITC.
The target in experiment [2] is T1, CID1R^ML, maximum likelihood reconstructed CBP-interacting domain (CID) of the NCOA family from an early ….
T1 chain: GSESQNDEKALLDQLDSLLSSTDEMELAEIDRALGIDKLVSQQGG
The experiment is described as follows: ITC. (Isothermal titration calorimetry measures the heat released or taken up as one component is titrated into another.)

Two molecules from article PMC8967867 (2022) can be followed below.

By Kd is commonly meant a measure of binding affinity in units of concentration. As to GSTPPQALQQLLQTLKSPSSPQQQQQVLQILKSNPQLMAAFIKQRSQHQQ (domain or fragment), in experiment [1], binding was characterised by a dissociation constant (Kd) of 2.2 µM.

Regarding IMPPALQQLLQTLKSPNSPQQQQQVLHILKSNPQLMAAFIKQRSQQQQ (domain or fragment), the affinity in experiment [2], expressed as Kd, was 9.7 µM.
